Results taken from article PMC9581989.

Biological target: Lactococcus lactis pyruvate carboxylase (Lactococcus lactis)
Test: cryo-EM structure; LlPC under reaction conditions: 0.1 uM LlPC, 2 mM acetyl-CoA, 20 mM pyruvate, 2 mM ATP, 10 mM KHCO3, 5 mM MgCl2, 2 mM DTT, 200 mM NaCl, 20 mM Tris pH 7.6; symmetry expansion, focused classification of BC and CT domains

stoichiometry N: 4
Substance: Lactococcus lactis pyruvate carboxylase (enzyme)
